# Laboratory results taken from patent US11478551B2, “Long-acting adrenomedullin derivative” (University of Miyazaki, priority 2015, dated 2022).
# Marks after values point to notes of the source that are not given here. Positions of bridges follow the written chain, without caps; N, C: chain ends. GL‑2‑branched CH3O‑PEG (40k)‑CH2 = glycerol skeleton-containing 2-branched methoxy-PEG (40 kDa) attached via alkylamine (CH2) linkage; GL‑2‑branched CH3O‑PEG (40k)‑CO = glycerol skeleton-containing 2-branched methoxy-PEG (40 kDa) attached via urethane (CO) linkage
# Tests used:
# Wistar rat = assay: Blood pressure-lowering effect, single intravenous dose in rat under anesthesia; type: in vivo; details: 1 nmol/kg, single dose into the vein
# Method: Each compound prepared in experiments I-1 and II-1 or full-length AM was administered in a single dose of 1 nmol/kg into the vein of each rat under anesthesia, and change in the blood pressure of the rat was observed. Each 11 to 14-week-old male Wistar rat was anesthetized by the inhalation of isoflurane. After tracheotomy, inhalational anesthesia was controlled at an isoflurane concentration of 1.5 to 2.5% and a flow rate of 0.6 to 0.8 L/min. The right jugular vein was isolated from the rat, and a catheter tube corresponding to 26 G was inserted thereto. Next, the left carotid artery was isolated from the rat thus treated, and a catheter tube corresponding to 23 G was inserted thereto. From the catheter tube of the right jugular vein, a physiological saline-heparin solution (physiological saline: 100 mL; heparin: 1000 units) was infused at 2.4 mL/hr. […] The catheter inserted in the carotid artery was connected to a pressure transducer. […] In the diagram, the ordinate depicts a difference obtained by subtracting the average blood pressure before the administration of each drug from the average blood pressure at the time of the administration of each drug.
# [1] = Measurement over time of AM concentration in plasma after subcutaneous administration (RIA); type: in vivo; details: rat
# Method: 1 day, 7 days and 10 days after the start of the administration, 50 mg of pentobarbital was intraperitoneally administered, and 300 μL of blood was collected each time from the tail vain under anesthesia. Immediately, 300 μg of EDTA-2Na and […] of aprotinin were added to the obtained blood sample, and the mixture was centrifuged under conditions involving 10 minutes and 3000 rpm to obtain plasma. The AM concentration in the plasma of each sample was measured by radioimmunoassay (RIA) (Kitamura K, Ichiki Y, Tanaka M et al., Immunoreactive adrenomedullin in human plasma. FEBS Lett., vol. 341, p. 288-90, 1994).
# The compound (37) prepared in experiment III-1 was subcutaneously administered in a single dose of 30 nmol/kg to each rat, and time-dependent change in the concentration in blood of the adrenomedullin derivative was observed. The compound (37) dissolved in physiological saline was subcutaneously administered to each 7- to 8-week-old male Wistar rat (approximately 250 g). 1 day, 2 days, 4 days, 7 days and 9 days after the start of the administration, 50 mg of pentobarbital was intraperitoneally administered, and 300 μL of blood was collected each time from the tail vain under anesthesia. Immediately, 300 μg of EDTA-2Na and […] of aprotinin were added to the obtained blood sample, and the mixture was centrifuged under conditions involving 10 minutes and 3000 rpm to obtain plasma. The AM concentration in the plasma of each sample was measured by RIA.
# AM receptor = target: T1, AM receptor (Homo sapiens, UniProt O60895+Q16602); assay: Intracellular cAMP concentration-increasing effect in HEK293 cell line caused to express an AM receptor; type: cell-based; details: for Intracellular cAMP concentration-increasing effect (%): 10^−8 mol/L, 15 minutes, 0.5 mM IBMX; for influence of N-terminal deletion of the peptide moiety on the intracellular cAMP concentration-increasing effect: in words;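 on all read-outs here: cAMP inside confluent receptor-expressing cells quantified by ELISA after 15 min exposure to each peptide at 10^−8 mol/L alongside 0.5 mM IBMX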
# T1 construct: expressed in transfected cells; host or cells: HEK293 cell line
# [2] = test system: spontaneously hypertensive rat (SHR); assay: Effect of suppressing increase in blood pressure in spontaneously hypertensive rat (SHR)-(2); type: in vivo; details: 30 nmol/kg subcutaneous single dose, 4 days and 9 days after administration
# Method: The compound (37) prepared in experiment III-1 was subcutaneously administered in a single dose of 30 nmol/kg to each SHR, and the blood pressure increase-suppressing effect of the adrenomedullin derivative was observed. The compound (37) was administered in a form dissolved in physiological saline to each 8-week-old male SHR (approximately 200 g). […] of physiological saline was subcutaneously administered in a single dose to each male SHR (approximately 200 g) in the same condition as above in a control group. The blood pressure was measured over time (1 day before and 4 days and 9 days after the administration of the compound (37) or physiological saline). The values of change in the blood pressure obtained 4 days and 9 days after the administration of the compound (37) or physiological saline with respect to the average systolic blood pressure on the day before the administration are shown in FIG. 10.
# [3] = 10 nmol/kg subcutaneous single dose, 7 days later
# [4] = percentage with respect to h.AM (1-52)
# T1 sequence (Q16602 23-461): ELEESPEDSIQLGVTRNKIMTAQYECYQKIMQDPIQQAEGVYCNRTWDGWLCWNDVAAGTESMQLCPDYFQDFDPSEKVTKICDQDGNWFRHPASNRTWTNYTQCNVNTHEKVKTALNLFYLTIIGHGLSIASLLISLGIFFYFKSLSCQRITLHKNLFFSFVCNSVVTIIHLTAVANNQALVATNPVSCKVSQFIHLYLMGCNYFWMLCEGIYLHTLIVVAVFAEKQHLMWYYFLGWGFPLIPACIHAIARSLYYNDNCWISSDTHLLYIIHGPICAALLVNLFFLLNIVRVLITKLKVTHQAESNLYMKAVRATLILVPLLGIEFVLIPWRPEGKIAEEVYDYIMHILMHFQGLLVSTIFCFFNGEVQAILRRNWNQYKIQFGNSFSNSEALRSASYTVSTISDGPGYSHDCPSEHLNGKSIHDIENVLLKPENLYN
# T1 sequence (O60895 43-175): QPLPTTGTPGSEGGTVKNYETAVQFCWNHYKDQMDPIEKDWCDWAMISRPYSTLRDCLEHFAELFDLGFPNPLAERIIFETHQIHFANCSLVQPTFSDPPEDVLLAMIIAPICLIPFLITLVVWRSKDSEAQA
molecule,measurement,setting,value
"CH3O-PEG (20k)-(CH2)5—CO-^αNH-(h.AM (1-52)) [Compound (2), reference compound]",rapidly decreased blood pressure immediately after the administration,Wistar rat,not observed
GL-2-branched CH3O-PEG (60k)-CH2-^αNH-(h.AM (1-52)-Gly) [Compound (37)],level at time molar at 24 h,"[1]; 30 nmol/kg subcutaneous single dose, 1 day later",≥ 34000 pM
same,level at time molar at 24 h,"[1]; 30 nmol/kg subcutaneous single dose, 7 days later",≥ 1600 pM
same,level at time molar at 24 h,"[1]; 30 nmol/kg subcutaneous single dose, 9 days later",≥ 110 pM
same,Intracellular cAMP concentration-increasing effect (%),AM receptor; percentage with respect to h.AM (1-52)-Gly,91****^) %
same,increase in the blood pressure compared to the control group,[2],suppressed
"CC[C@H](C)[C@H](NC(=O)[C@H](CCC(N)=O)NC(=O)[C@H](Cc1c[nH]cn1)NC(=O)[C@H](C)NC(=O)[C@H](CC(C)C)NC(=O)[C@H](CCCCN)NC(=O)[C@H](CCC(N)=O)NC(=O)[C@@H](NC(=O)[C@@H](NC(=O)[C@@H]1CSSC[C@H](NC(=O)CNC(=O)[C@H](Cc2ccccc2)NC(=O)[C@H](CO)NC(=O)[C@H](CCCNC(=N)N)NC(=O)[C@H](CC(C)C)NC(=O)CNC(=O)[C@H](CCC(N)=O)NC(=O)[C@H](Cc2ccccc2)NC(=O)[C@H](CC(N)=O)NC(=O)[C@H](CC(N)=O)NC(=O)[C@H](CCSC)NC(=O)[C@H](CO)NC(=O)[C@H](CCC(N)=O)NC(=O)[C@H](CCCNC(=N)N)NC(=O)[C@@H](N)Cc2ccc(O)cc2)C(=O)N[C@@H](CCCNC(=N)N)C(=O)N[C@@H](Cc2ccccc2)C(=O)NCC(=O)N[C@@H]([C@@H](C)O)C(=O)N1)[C@@H](C)O)C(C)C)C(=O)N[C@@H](Cc1ccc(O)cc1)C(=O)N[C@@H](CCC(N)=O)C(=O)N[C@@H](Cc1ccccc1)C(=O)N[C@H](C(=O)N[C@@H](CC(=O)O)C(=O)N[C@@H](CCCCN)C(=O)N[C@@H](CC(=O)O)C(=O)N[C@@H](CCCCN)C(=O)N[C@@H](CC(=O)O)C(=O)N[C@@H](CC(N)=O)C(=O)N[C@H](C(=O)N[C@@H](C)C(=O)N1CCC[C@H]1C(=O)N[C@@H](CCCNC(=N)N)C(=O)N[C@@H](CO)C(=O)N[C@@H](CCCCN)C(=O)N[C@H](C(=O)N[C@@H](CO)C(=O)N1CCC[C@H]1C(=O)N[C@@H](CCC(N)=O)C(=O)NCC(=O)N[C@@H](Cc1ccc(O)cc1)C(N)=O)[C@@H](C)CC)C(C)C)[C@@H](C)O [h.AM (1-52), reference compound]",level at time molar at 24 h,[1]; [3],0 pM
same,level at time molar at 24 h,"[1]; 10 nmol/kg subcutaneous single dose, 10 days later",0 pM
same,level at time molar at 24 h,"[1]; male, Wistar, plasma, sc, 10 nmol/kg subcutaneous single dose, 1 day later",6.7 pM
same,rapidly decreased blood pressure immediately after the administration,Wistar rat,rapidly decreased blood pressure was observed
GL-2-branched CH3O-PEG (40k)-CO-^αNH-(h.AM (16-52)) ({GL‑2‑branched CH3O‑PEG (40k)‑CO}-CRFGTCTVQKLAHQIYQFTDKDKDNVAPRSKISPQGY-NH2; disulfide 1-6 (inferred); ends not checked) [Compound (33)],Intracellular cAMP concentration-increasing effect (%),AM receptor; [4],61%
GL-2-branched CH3O-PEG (20k)-CO-^αNH-(h.AM (16-52)) ({GL‑2‑branched CH3O‑PEG (20k)‑CO}-CRFGTCTVQKLAHQIYQFTDKDKDNVAPRSKISPQGY-NH2; disulfide 1-6 (inferred); ends not checked) [Compound (32)],Intracellular cAMP concentration-increasing effect (%),AM receptor; [4],96%
GL-2-branched CH3O-PEG (40k)-CO-^αNH-(h.AM (1-52)) [Compound (27)],level at time molar at 24 h,"[1]; 10 nmol/kg subcutaneous single dose, 1 day later",≥ 3600 pM
same,level at time molar at 24 h,[1]; [3],≥ 120 pM
CH3O-PEG (20k)-(CH2)2—CH2-^αNH-(h.AM (1-52)) [Compound (4)],"decrease in the blood pressure immediately after the administration, as compared to compound (2)",Wistar rat,further suppressed
same,rapidly decreased blood pressure immediately after the administration,Wistar rat,not observed
CH3O-PEG (5k)-(CH2)2—CH2-^αNH-(h.AM (11-52)) ({CH3O‑PEG (5k)‑(CH2)2—CH2}-LRSFGCRFGTCTVQKLAHQIYQFTDKDKDNVAPRSKISPQGY-NH2; disulfide 6-11 (inferred); ends not checked) [Compound (19)],Intracellular cAMP concentration-increasing effect (%),AM receptor; [4],80%
same,influence of N-terminal deletion of the peptide moiety on the intracellular cAMP concentration-increasing effect,AM receptor,suppressed the influence of N-terminal deletion
CH3O-PEG (5k)-(CH2)2—CH2-^αNH-(h.AM (16-52)) ({CH3O‑PEG (5k)‑(CH2)2—CH2}-CRFGTCTVQKLAHQIYQFTDKDKDNVAPRSKISPQGY-NH2; disulfide 1-6 (inferred); ends not checked) [Compound (20)],Intracellular cAMP concentration-increasing effect (%),AM receptor; [4],39%
same,influence of N-terminal deletion of the peptide moiety on the intracellular cAMP concentration-increasing effect,AM receptor,suppressed the influence of N-terminal deletion
GL-2-branched CH3O-PEG (40k)-CH2-^αNH-(h.AM (16-52)) ({GL‑2‑branched CH3O‑PEG (40k)‑CH2}-CRFGTCTVQKLAHQIYQFTDKDKDNVAPRSKISPQGY-NH2; disulfide 1-6 (inferred); ends not checked) [Compound (24)],Intracellular cAMP concentration-increasing effect (%),AM receptor; percentage with respect to h.AM (16-52),93***^) %
CH3O-PEG (20k)-(CH2)2—CH2-^αNH-(h.AM (11-52)) ({CH3O‑PEG (20k)‑(CH2)2—CH2}-LRSFGCRFGTCTVQKLAHQIYQFTDKDKDNVAPRSKISPQGY-NH2; disulfide 6-11 (inferred); ends not checked) [Compound (22)],Intracellular cAMP concentration-increasing effect (%),AM receptor; [4],97%
same,influence of N-terminal deletion of the peptide moiety on the intracellular cAMP concentration-increasing effect,AM receptor,high intracellular cAMP concentration-increasing effect without the influence of the N-terminal deletion
GL-2-branched CH3O-PEG (40k)-CH2-^αNH-(h.AM (6-52)) ({GL‑2‑branched CH3O‑PEG (40k)‑CH2}-NNFQGLRSFGCRFGTCTVQKLAHQIYQFTDKDKDNVAPRSKISPQGY-NH2; disulfide 11-16 (inferred); ends not checked) [Compound (29)],Intracellular cAMP concentration-increasing effect (%),AM receptor; [4],77%
GL-4-branched CH3O-PEG (40k)-CO-^αNH-(h.AM (6-52)) ({GL‑4‑branched CH3O‑PEG (40k)‑CO}-NNFQGLRSFGCRFGTCTVQKLAHQIYQFTDKDKDNVAPRSKISPQGY-NH2; disulfide 11-16 (inferred); ends not checked) [Compound (34)],Intracellular cAMP concentration-increasing effect (%),AM receptor; [4],83%
